Laboratory results taken from patent CN107417788A (INST PASTEUR SHANGHAI CAS, dated 2017).

Molecular target: T1, 生物素化Zaire GP蛋白 (pIRES-Zaire GP-BirA-FLAG SP-) (Ebola virus (EBOV) subtype Zaire, UniProt Q05320 33-676)
T1 construct: range 33-676; also called Zaire-GP-Biotin; Zaire-GP-BirA细胞裂解液
T1 sequence: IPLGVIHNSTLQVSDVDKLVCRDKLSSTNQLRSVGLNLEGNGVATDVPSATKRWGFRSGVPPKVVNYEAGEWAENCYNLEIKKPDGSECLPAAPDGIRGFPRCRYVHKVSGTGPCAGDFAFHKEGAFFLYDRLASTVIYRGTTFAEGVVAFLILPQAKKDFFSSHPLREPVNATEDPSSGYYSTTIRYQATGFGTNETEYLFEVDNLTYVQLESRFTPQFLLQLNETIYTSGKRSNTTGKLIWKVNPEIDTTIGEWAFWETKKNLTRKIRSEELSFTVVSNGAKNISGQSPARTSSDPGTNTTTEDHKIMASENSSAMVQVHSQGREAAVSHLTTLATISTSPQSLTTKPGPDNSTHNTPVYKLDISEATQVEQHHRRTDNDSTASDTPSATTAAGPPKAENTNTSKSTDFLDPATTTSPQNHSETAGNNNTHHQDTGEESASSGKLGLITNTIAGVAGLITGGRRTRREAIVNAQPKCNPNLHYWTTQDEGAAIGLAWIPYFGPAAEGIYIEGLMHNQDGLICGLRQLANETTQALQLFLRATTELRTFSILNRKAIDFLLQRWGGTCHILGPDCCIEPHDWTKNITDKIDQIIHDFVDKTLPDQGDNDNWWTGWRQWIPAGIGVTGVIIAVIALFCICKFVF
Assay: indirect ELISA, […] (1:300) […]

B1: S37-3 (antibody, V domains shown)
VH: EVQLQQSGPELVKPGASVKISCKASGYSFTGYFMNWVKQSHGKSLEWIGRINPYNGDTFYNQKFKGKATLTVDKSSSTAHMELLSLTSEDSAVYYCGRGLRAFLDYWGQGTTLTVSS
VL: DIVLTQSPATLSVTPGDRVSLSCRASQSISNYLHWYQQKSHESPRLLIKYASQSISGIPSRFSGSGSGTDFTLSINSVETEDFGMYFCQQSNSWPHTFGGGTKLEIK
notes: also called 单克隆抗体S37-3; S37-3上清
Does B1 bind?
Result: binds
